Tests used:
[1] = molecular target: T1, human nerve growth factor (human, UniProt P01138 122-241); experiment: BIAcore SPR screen, Fab over immobilised human NGF
T1 construct: Immobilised on CM5 chips for BIAcore, soluble in neuron survival assays; also called human NGF; hNGF
Protocol: (§1) A screening BIAcore assay was optimized to determine the affinity of Fab clones from libraries. Supernatants of small culture lysates were injected at […] for 2 min. Dissociation times of 10 to 15 minutes were used for determination of a single exponential dissociation rate (koff) using BIAevaluation software. […] Clones showing improved (slower) koff values were expressed at large scale and full kinetic parameters, kₒₙ and koff, were determined on purified protein.
(§2) 20-80 clones from each small library were screened using BIAcore analysis as described herein. Samples were simultaneously analyzed by BIAcore for binding affinity to NGF in one channel of the BIAcore chip and for presence of Fab by binding to a penta-histag antibody in another channel of the sensor chip, to detect the his tag at the C terminus of the heavy chain. Clones that expressed protein were classified as having the same affinity, worse affinity, better affinity or no binding, using koff to classify: The results of this analysis are shown in Table 5.

[2] = molecular target: T1, human nerve growth factor; experiment: BIAcore SPR screen, Fab over immobilised human NGF; KD calculated from koff with kon 4e4 M-1s-1
Protocol: as §1, §2

T1 sequence (P01138 122-241 limits assumed): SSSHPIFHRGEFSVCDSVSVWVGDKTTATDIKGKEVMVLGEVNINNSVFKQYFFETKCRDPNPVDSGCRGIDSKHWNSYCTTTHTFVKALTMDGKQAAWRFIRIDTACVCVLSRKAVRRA

| Binder | koff [1] [s⁻¹] | Kd [2] [µM] |
| --- | --- | --- |
| 8L2-6D5 Fab with CDR H3 mutation D109N (Fab, V domains shown, See note of m8) VH: QVQLQESGPGLVKPSETLSLTCTVSGFSLIGYDINWIRQPPGKGLEWIGMIWGDGTTDYNSALKSRVTISKDTSKNQFSLKLSSVTAADTAVYYCARGGYYYGTSYYFNYWGQGTLVTVS VL: DIQMTQSPSSLSASVGDRVTITCRASQDISNHLNWYQQKPGKAPKLLIYYISRFHSGVPSRFSGSGSGTDFTFTISSLQPEDIATYYCQQSKTLPYTFGQGTKLEIKR | 0.0015 | 0.037 |
| 8L2-6D5 Fab with CDR H3 mutation Y110R (Fab, V domains shown, See note of m8) VH: QVQLQESGPGLVKPSETLSLTCTVSGFSLIGYDINWIRQPPGKGLEWIGMIWGDGTTDYNSALKSRVTISKDTSKNQFSLKLSSVTAADTAVYYCARGGYYYGTSYYFDRWGQGTLVTVS VL: DIQMTQSPSSLSASVGDRVTITCRASQDISNHLNWYQQKPGKAPKLLIYYISRFHSGVPSRFSGSGSGTDFTFTISSLQPEDIATYYCQQSKTLPYTFGQGTKLEIKR | 0.0016 | 0.04 |
| 8L2-6D5 Fab with CDR H3 mutation Y110T (Fab, V domains shown, See note of m8) VH: QVQLQESGPGLVKPSETLSLTCTVSGFSLIGYDINWIRQPPGKGLEWIGMIWGDGTTDYNSALKSRVTISKDTSKNQFSLKLSSVTAADTAVYYCARGGYYYGTSYYFDTWGQGTLVTVS VL: DIQMTQSPSSLSASVGDRVTITCRASQDISNHLNWYQQKPGKAPKLLIYYISRFHSGVPSRFSGSGSGTDFTFTISSLQPEDIATYYCQQSKTLPYTFGQGTKLEIKR | 0.0017 | 0.042 |
| 8L2-6D5 Fab with CDR H3 mutation T104S (Fab, V domains shown, See note of m8; also called T1045 (so in the source)) VH: QVQLQESGPGLVKPSETLSLTCTVSGFSLIGYDINWIRQPPGKGLEWIGMIWGDGTTDYNSALKSRVTISKDTSKNQFSLKLSSVTAADTAVYYCARGGYYYGSSYYFDYWGQGTLVTVS VL: DIQMTQSPSSLSASVGDRVTITCRASQDISNHLNWYQQKPGKAPKLLIYYISRFHSGVPSRFSGSGSGTDFTFTISSLQPEDIATYYCQQSKTLPYTFGQGTKLEIKR | 0.0022 | 0.055 |
| 8L2-6D5 Fab with CDR H3 mutation Y106M (Fab, V domains shown, See note of m8) VH: QVQLQESGPGLVKPSETLSLTCTVSGFSLIGYDINWIRQPPGKGLEWIGMIWGDGTTDYNSALKSRVTISKDTSKNQFSLKLSSVTAADTAVYYCARGGYYYGTSMYFDYWGQGTLVTVS VL: DIQMTQSPSSLSASVGDRVTITCRASQDISNHLNWYQQKPGKAPKLLIYYISRFHSGVPSRFSGSGSGTDFTFTISSLQPEDIATYYCQQSKTLPYTFGQGTKLEIKR | 0.0027 | 0.067 |
| 8L2-6D5 Fab with CDR H3 mutation Y110K (Fab, V domains shown, See note of m8) VH: QVQLQESGPGLVKPSETLSLTCTVSGFSLIGYDINWIRQPPGKGLEWIGMIWGDGTTDYNSALKSRVTISKDTSKNQFSLKLSSVTAADTAVYYCARGGYYYGTSYYFDKWGQGTLVTVS VL: DIQMTQSPSSLSASVGDRVTITCRASQDISNHLNWYQQKPGKAPKLLIYYISRFHSGVPSRFSGSGSGTDFTFTISSLQPEDIATYYCQQSKTLPYTFGQGTKLEIKR | 0.0014 | 0.035 |
| 8L2-6D5 Fab with CDR H3 mutation Y106T (Fab, V domains shown, See note of m8) VH: QVQLQESGPGLVKPSETLSLTCTVSGFSLIGYDINWIRQPPGKGLEWIGMIWGDGTTDYNSALKSRVTISKDTSKNQFSLKLSSVTAADTAVYYCARGGYYYGTSTYFDYWGQGTLVTVS VL: DIQMTQSPSSLSASVGDRVTITCRASQDISNHLNWYQQKPGKAPKLLIYYISRFHSGVPSRFSGSGSGTDFTFTISSLQPEDIATYYCQQSKTLPYTFGQGTKLEIKR | 0.002 | 0.05 |
| 8L2-6D5 Fab with CDR H3 mutation Y106R (Fab, V domains shown, See note of m8) VH: QVQLQESGPGLVKPSETLSLTCTVSGFSLIGYDINWIRQPPGKGLEWIGMIWGDGTTDYNSALKSRVTISKDTSKNQFSLKLSSVTAADTAVYYCARGGYYYGTSRYFDYWGQGTLVTVS VL: DIQMTQSPSSLSASVGDRVTITCRASQDISNHLNWYQQKPGKAPKLLIYYISRFHSGVPSRFSGSGSGTDFTFTISSLQPEDIATYYCQQSKTLPYTFGQGTKLEIKR | 0.0016 | 0.04 |
| 8L2-6D5 Fab with CDR H3 mutation Y110S (Fab, V domains shown, See note of m8) VH: QVQLQESGPGLVKPSETLSLTCTVSGFSLIGYDINWIRQPPGKGLEWIGMIWGDGTTDYNSALKSRVTISKDTSKNQFSLKLSSVTAADTAVYYCARGGYYYGTSYYFDSWGQGTLVTVS VL: DIQMTQSPSSLSASVGDRVTITCRASQDISNHLNWYQQKPGKAPKLLIYYISRFHSGVPSRFSGSGSGTDFTFTISSLQPEDIATYYCQQSKTLPYTFGQGTKLEIKR | 0.0015 | 0.037 |

Second part, the binder after the results:

| koff [1] [s⁻¹] | Kd [2] [µM] | Binder |
| --- | --- | --- |
| 0.001 | 0.025 | 8L2-6D5 Fab with CDR H3 mutation D109G (Fab, V domains shown, See note of m8) VH: QVQLQESGPGLVKPSETLSLTCTVSGFSLIGYDINWIRQPPGKGLEWIGMIWGDGTTDYNSALKSRVTISKDTSKNQFSLKLSSVTAADTAVYYCARGGYYYGTSYYFGYWGQGTLVTVS VL: DIQMTQSPSSLSASVGDRVTITCRASQDISNHLNWYQQKPGKAPKLLIYYISRFHSGVPSRFSGSGSGTDFTFTISSLQPEDIATYYCQQSKTLPYTFGQGTKLEIKR |
| 0.0014 | 0.035 | 8L2-6D5 Fab with CDR H3 mutation Y107F (Fab, V domains shown, See note of m8) VH: QVQLQESGPGLVKPSETLSLTCTVSGFSLIGYDINWIRQPPGKGLEWIGMIWGDGTTDYNSALKSRVTISKDTSKNQFSLKLSSVTAADTAVYYCARGGYYYGTSYFFDYWGQGTLVTVS VL: DIQMTQSPSSLSASVGDRVTITCRASQDISNHLNWYQQKPGKAPKLLIYYISRFHSGVPSRFSGSGSGTDFTFTISSLQPEDIATYYCQQSKTLPYTFGQGTKLEIKR |
| 0.00025 | 0.006 | 8L2-6D5 Fab with CDR L3 mutation S91E (Fab, V domains shown, E91 is the E3 residue, so it is kept; See note of m8) VH: QVQLQESGPGLVKPSETLSLTCTVSGFSLIGYDINWIRQPPGKGLEWIGMIWGDGTTDYNSALKSRVTISKDTSKNQFSLKLSSVTAADTAVYYCARGGYYYGTSYYFDYWGQGTLVTVS VL: DIQMTQSPSSLSASVGDRVTITCRASQDISNHLNWYQQKPGKAPKLLIYYISRFHSGVPSRFSGSGSGTDFTFTISSLQPEDIATYYCQQEKTLPYTFGQGTKLEIKR |
| 0.00016 | 0.004 | 8L2-6D5 Fab with CDR H3 mutation G103A (Fab, V domains shown, A103 is the E3 residue, so it is kept; See note of m8) VH: QVQLQESGPGLVKPSETLSLTCTVSGFSLIGYDINWIRQPPGKGLEWIGMIWGDGTTDYNSALKSRVTISKDTSKNQFSLKLSSVTAADTAVYYCARGGYYYATSYYFDYWGQGTLVTVS VL: DIQMTQSPSSLSASVGDRVTITCRASQDISNHLNWYQQKPGKAPKLLIYYISRFHSGVPSRFSGSGSGTDFTFTISSLQPEDIATYYCQQSKTLPYTFGQGTKLEIKR |
| 0.00064 | 0.016 | 8L2-6D5 Fab with CDR H3 mutation S105T (Fab, V domains shown, See note of m8) VH: QVQLQESGPGLVKPSETLSLTCTVSGFSLIGYDINWIRQPPGKGLEWIGMIWGDGTTDYNSALKSRVTISKDTSKNQFSLKLSSVTAADTAVYYCARGGYYYGTTYYFDYWGQGTLVTVS VL: DIQMTQSPSSLSASVGDRVTITCRASQDISNHLNWYQQKPGKAPKLLIYYISRFHSGVPSRFSGSGSGTDFTFTISSLQPEDIATYYCQQSKTLPYTFGQGTKLEIKR |
| 0.0012 | 0.03 | 8L2-6D5 Fab with CDR H3 mutation Y100L (Fab, V domains shown, See note of m8) VH: QVQLQESGPGLVKPSETLSLTCTVSGFSLIGYDINWIRQPPGKGLEWIGMIWGDGTTDYNSALKSRVTISKDTSKNQFSLKLSSVTAADTAVYYCARGGLYYGTSYYFDYWGQGTLVTVS VL: DIQMTQSPSSLSASVGDRVTITCRASQDISNHLNWYQQKPGKAPKLLIYYISRFHSGVPSRFSGSGSGTDFTFTISSLQPEDIATYYCQQSKTLPYTFGQGTKLEIKR |
| 0.00122 | 0.03 | 8L2-6D5 Fab with CDR H3 mutation F108W (Fab, V domains shown, See note of m8) VH: QVQLQESGPGLVKPSETLSLTCTVSGFSLIGYDINWIRQPPGKGLEWIGMIWGDGTTDYNSALKSRVTISKDTSKNQFSLKLSSVTAADTAVYYCARGGYYYGTSYYWDYWGQGTLVTVS VL: DIQMTQSPSSLSASVGDRVTITCRASQDISNHLNWYQQKPGKAPKLLIYYISRFHSGVPSRFSGSGSGTDFTFTISSLQPEDIATYYCQQSKTLPYTFGQGTKLEIKR |
| 0.0011 | 0.027 | 8L2-6D5 Fab with CDR H3 mutation Y100R (Fab, V domains shown, See note of m8) VH: QVQLQESGPGLVKPSETLSLTCTVSGFSLIGYDINWIRQPPGKGLEWIGMIWGDGTTDYNSALKSRVTISKDTSKNQFSLKLSSVTAADTAVYYCARGGRYYGTSYYFDYWGQGTLVTVS VL: DIQMTQSPSSLSASVGDRVTITCRASQDISNHLNWYQQKPGKAPKLLIYYISRFHSGVPSRFSGSGSGTDFTFTISSLQPEDIATYYCQQSKTLPYTFGQGTKLEIKR |
| 0.00051 | 0.013 | 8L2-6D5 Fab with CDR H3 mutation S105A (Fab, V domains shown, See note of m8) VH: QVQLQESGPGLVKPSETLSLTCTVSGFSLIGYDINWIRQPPGKGLEWIGMIWGDGTTDYNSALKSRVTISKDTSKNQFSLKLSSVTAADTAVYYCARGGYYYGTAYYFDYWGQGTLVTVS VL: DIQMTQSPSSLSASVGDRVTITCRASQDISNHLNWYQQKPGKAPKLLIYYISRFHSGVPSRFSGSGSGTDFTFTISSLQPEDIATYYCQQSKTLPYTFGQGTKLEIKR |
| 0.00056 | 0.014 | 8L2-6D5 Fab with CDR H3 mutation Y101W (Fab, V domains shown, W101 is the E3 residue, so it is kept; See note of m8) VH: QVQLQESGPGLVKPSETLSLTCTVSGFSLIGYDINWIRQPPGKGLEWIGMIWGDGTTDYNSALKSRVTISKDTSKNQFSLKLSSVTAADTAVYYCARGGYWYGTSYYFDYWGQGTLVTVS VL: DIQMTQSPSSLSASVGDRVTITCRASQDISNHLNWYQQKPGKAPKLLIYYISRFHSGVPSRFSGSGSGTDFTFTISSLQPEDIATYYCQQSKTLPYTFGQGTKLEIKR |

Source: patent US20170088610A1 (RINAT NEUROSCIENCE, published 2017)
